Test system: CD4 T cells
Assay: CD4 T cell activation and differentiation in vitro with Dkk-1 or Wnt3a
Format: cell-based, mice
Excerpt: FIG. 5, comprising FIG. 5A through FIG. 5E, depicts results of experiments showing Dkk-1 induces TH2 cell polarization. FIG. 5A depicts lungs harvested for immunohistochemistry of CD3 (dark brown), CD41 (blue) and isotype control antibodies of lungs from Dkk-1^d/d mice and their wildtype littermate controls challenged with HDM extract allergen. Orange arrowheads in the images indicate co-localized CD3 T cells with CD41^+ platelets. FIG. 5B depicts ELISA analysis of Dkk-1 from plasma samples from Dkk-1^d/d mice (n=5) collected 24 hours after challenge with 50 μg HDM. FIG. 5C depicts ELISA analysis of splenic CD4 T cells from 6-8 week-old C57BL/6 mice were activated with anti-CD3 and anti-CD28 antibodies (Act) with or without Dkk-1 (30 ng/ml unless indicated) for 4 days. FIG. 5D depicts flow cytometry analysis of splenic CD4 T cells from 6-8 week-old C57BL/6 mice were activated with anti-CD3 and anti-CD28 antibodies (Act) with or without Dkk-1 (30 ng/ml unless indicated) for 4 days. FIG. 5E depicts ELISA analysis of naïve CD4 T cells stimulated anti-CD3 and anti-CD28 antibodies for 96 hr with or without Dkk-1.
FIG. 6, comprising FIG. 6A through FIG. 6E, depicts results of experiments showing Dkk-1 induces TH2 cytokines in various T cell differentiation conditions. FIG. 6A depicts flow cytometry and ELISA analysis of naïve CD4 T cells were stimulated under TH1 polarization conditions for 96 hours with or without Dkk-1. FIG. 6B depicts flow cytometry and ELISA analysis of naïve CD4 T cells were stimulated under TH2 polarization conditions for 96 hours with or without Dkk-1. FIG. 6C depicts flow cytometry analysis of Foxp3, IL-17A, and IL-10 expression in splenic naïve CD4 T cells isolated and differentiated into iTreg for 5 days with 100 U/ml IL-2 and 1.5 ng/ml TGF-β with or without 30 ng/ml and 3 ng/ml of Dkk-1 treated during the culture. FIG. 6D depicts Gata-3 expression levels of splenic naïve CD4 T cells from 8 week-old C57BL/6 mice treated with Dkk-1 with varying doses of Dkk-1 (50, 30, 7.5 ng/ml) or Wnt3a (20% v/v) for 96 hours in the presence of anti-CD3 and anti-CD28 antibody stimulation. FIG. 6E depicts qPCR results of Tcf7 and Lef1 mRNA harvested from splenic naïve CD4 T cells from 8 week-old C57BL/6 mice stimulated with or without Dkk-1 (30 ng/ml) for 96 hours. All results were statistically non-significant. All experiments are a representative of two to three independent experiments. Student's t-test or one way-ANOVA analysis with Bonferonni's post-hoc test were performed. Small horizontal lines and error bars indicate the mean (±s.e.m.). ***, p<0.0001, **, p<0.005, *, p<0.05.
FIG. 8, comprising FIG. 8A through FIG. 8G, depicts results of experiments showing Dkk-1 induces IL-10 in CD4 T cells via SGK-1 and p38 MAPK. FIG. 8A depicts ELISA analysis of naïve CD4 T cell differentiated into TH2 cells with or without Dkk-1 (30 ng/ml), SGK-1 inhibitor (2 μM) or p38 inhibitor (10 μM) for 96 hours. FIG. 8B depicts flow cytometry analysis of human naïve CD4 T cells (CD4^+CD25^−CD45RA^+) transduced with SGK-1 shRNA and selected with puromycin (0.5 μg/ml) for 48 hours. The selected cells were stimulated with anti-CD3 mAb (OKT3) and anti-CD28 mAb with or without Dkk-1 for 96 hr. For the last 5 hr of culture, stimulation cocktail (PMA/Ionomycin/Brefeldin A/Monensin) was added. FIG. 8C depicts intracellular staining with antibodies recognizing phospho-S6 kinase of splenic CD4^+CD25^− cells from 6 week-old C57BL/6 mice were isolated and activated with anti-CD3 and anti-CD28 mAb (2 μg/ml) with or without Dkk-1 (25 ng/ml) for indicated time points. FIG. 8D depicts intracellular staining with antibodies recognizing phospho-4E-BP1 of splenic CD4^+CD25^− cells from 6 week-old C57BL/6 mice were isolated and activated with anti-CD3 and anti-CD28 mAb (2 μg/ml) with or without Dkk-1 (25 ng/ml) for indicated time points. […]

B1: Dkk-1: Wnt antagonist Dickkopf-1 protein, expressed in CHO cells, added to cells or injected into mice (protein, UniProt O94907 32-266, looked up)
Dickkopf-related protein 1: TLNSVLNSNAIKNLPPPLGGAAGHPGSAVSAAPGILYPGGNKYQTIDNYQPYPCAEDEECGTDEYCASPTRGGDAGVQICLACRKRRKRCMRHAMCCPGNYCKNGICVSSDQNHFRGEIEETITESFGNDHSTLDGYSRRTTLSSKMYHTKGQEGSVCLRSSDCASGLCCARHFWSKICKPVLKEGQVCTKHRRKGSHGLEIFQRCYCGEGLSCRIQKDHHQASNSSRLHTCQRH
TH1 and TH17-associated cytokines (IFN-γ, IL-17A and IL-17F) (CD4 T cell activation in vitro): not induced | IFN-γ expression (TH1 polarization conditions, 96 hours): suppressed | IL-4 expression (TH2 cell differentiation, dose-dependent): enhanced | TGF-β-mediated Foxp3 expression (iTreg differentiation with IL-2 and TGF-β, 5 days): inhibiting | Gata-3+ and c-Maf+ CD4 T cell population (in vitro, Dkk-1 30 ng/ml): increased | amount of Dkk-1 that could induce Gata-3 expression (naïve CD4 T cells, 96 hours, similar to Wnt3a): up to 30 ng/ml | TCF-1 or Lef expression (naïve CD4 T cells, Dkk-1 30 ng/ml, 96 hours, qPCR): did not induce | levels of Dkk-1 that inhibited Gata-3 expression (naïve CD4 T cells, non-physiologic high levels): > 50 ng/mL | phosphorylation of S6 kinase or 4E-BP-1 (splenic CD4+CD25- cells, Dkk-1 25 ng/ml): not altered | IL-4, IL-10 and IL-13 (total CD4 T cell activation in vitro, Dkk-1 30 ng/ml, 4 days): induced

— US11135223B2, “Compositions and methods for inhibiting Dkk-1” (YALE UNIVERSITY, priority 2016, dated 2021)
